Assay results reported in the supplement of paper PMC10065799, “High-throughput profiling of sequence recognition by tyrosine kinases and SH2 domains using bacterial peptide display” (eLife, 2023).

How the values were obtained:
c-Src SH2 = experiment: SH2 binding enrichment of the phosphorylated peptide, bacterial display (enrichment ratio); higher = better substrate or ligand; peptides without Tyr show the background
Grb2 SH2 = Grb2 SH2 (UniProt P62993); experiment: as above
SHP2-C SH2 = experiment: as above
Fer (mouse) = experiment: phosphorylation enrichment, bacterial display (enrichment ratio); higher = better substrate or ligand; peptides without Tyr show the background
FGFR1 = FGFR1 (UniProt P11362); experiment: as above
EPHB1 = EPHB1 (UniProt P54762); experiment: as above
Fes = Fes (UniProt P07332); experiment: as above
EPHB2 = EPHB2 (UniProt P29323); experiment: as above
Jak2 = Jak2 (UniProt O60674); experiment: as above
FGFR3 = FGFR3 (UniProt P22607); experiment: as above
c-Abl (mouse) = experiment: as above
AncSZ = experiment: as above
c-Src = experiment: as above
Hck = Hck (UniProt P08631); experiment: as above
MERTK = MERTK (UniProt Q12866); experiment: as above
Fyn = Fyn (UniProt P06241); experiment: as above
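Wherever SH2 binding enrichment of the phosphorylated peptide, bacterial display is given: peptide library displayed on the E. coli surface as eCPX fusions, selected cells deep-sequenced, score is each peptide's frequency after selection divided by its frequency in the input.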
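Wherever phosphorylation enrichment, bacterial display is given: 11-residue human phosphosite peptides and single-mutation variants displayed on the E. coli surface, counted by deep sequencing, each peptide's frequency after selection divided by its frequency in the unselected input library; frequency after pTyr selection over input frequency; kinase dosed for 20-30% of maximal phosphorylation in three min.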

FGFR1, sequence (P11362 whole entry, looked up): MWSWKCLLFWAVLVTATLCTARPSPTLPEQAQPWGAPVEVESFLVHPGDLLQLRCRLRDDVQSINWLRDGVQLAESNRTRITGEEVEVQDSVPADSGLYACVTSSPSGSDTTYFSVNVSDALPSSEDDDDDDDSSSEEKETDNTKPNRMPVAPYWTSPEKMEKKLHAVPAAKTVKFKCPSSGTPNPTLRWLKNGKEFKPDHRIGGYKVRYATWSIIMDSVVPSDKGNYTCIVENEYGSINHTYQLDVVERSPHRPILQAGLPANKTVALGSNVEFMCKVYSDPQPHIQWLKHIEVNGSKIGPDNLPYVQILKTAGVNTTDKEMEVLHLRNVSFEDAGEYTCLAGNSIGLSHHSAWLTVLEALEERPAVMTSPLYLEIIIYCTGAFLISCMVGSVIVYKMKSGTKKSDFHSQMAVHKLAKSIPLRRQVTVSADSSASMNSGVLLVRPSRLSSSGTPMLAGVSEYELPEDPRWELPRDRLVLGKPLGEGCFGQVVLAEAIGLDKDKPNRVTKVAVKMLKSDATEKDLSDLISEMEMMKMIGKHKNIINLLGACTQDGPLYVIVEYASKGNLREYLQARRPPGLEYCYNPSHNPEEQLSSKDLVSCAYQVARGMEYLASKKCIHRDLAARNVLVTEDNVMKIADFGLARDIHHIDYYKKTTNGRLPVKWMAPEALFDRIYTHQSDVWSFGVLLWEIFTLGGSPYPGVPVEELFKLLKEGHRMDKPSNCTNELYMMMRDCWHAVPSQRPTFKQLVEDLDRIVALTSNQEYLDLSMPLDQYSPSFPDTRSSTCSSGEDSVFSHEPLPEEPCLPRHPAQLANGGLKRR
FGFR3, sequence (P22607 whole entry, looked up): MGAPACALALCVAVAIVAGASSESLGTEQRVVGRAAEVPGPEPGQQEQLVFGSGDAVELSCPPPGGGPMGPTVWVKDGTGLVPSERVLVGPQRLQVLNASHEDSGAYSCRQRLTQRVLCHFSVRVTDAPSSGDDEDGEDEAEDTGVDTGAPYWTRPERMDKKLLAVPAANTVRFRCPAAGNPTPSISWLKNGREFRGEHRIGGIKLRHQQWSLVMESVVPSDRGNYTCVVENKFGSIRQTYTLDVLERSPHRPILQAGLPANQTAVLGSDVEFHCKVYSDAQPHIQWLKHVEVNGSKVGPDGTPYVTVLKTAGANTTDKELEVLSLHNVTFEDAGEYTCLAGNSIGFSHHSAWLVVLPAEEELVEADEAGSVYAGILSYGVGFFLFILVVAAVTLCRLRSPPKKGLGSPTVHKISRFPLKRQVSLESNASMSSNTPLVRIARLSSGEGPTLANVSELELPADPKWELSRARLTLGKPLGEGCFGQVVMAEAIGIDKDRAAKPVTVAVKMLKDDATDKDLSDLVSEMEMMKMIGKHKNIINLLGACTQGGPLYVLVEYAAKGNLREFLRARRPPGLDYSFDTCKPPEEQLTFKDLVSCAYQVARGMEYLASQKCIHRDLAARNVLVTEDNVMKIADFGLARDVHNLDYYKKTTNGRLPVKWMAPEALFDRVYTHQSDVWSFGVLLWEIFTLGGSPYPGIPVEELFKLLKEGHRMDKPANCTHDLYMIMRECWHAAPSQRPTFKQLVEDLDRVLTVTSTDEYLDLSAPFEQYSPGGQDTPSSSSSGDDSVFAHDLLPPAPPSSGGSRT
EPHB2, sequence (P29323 whole entry, looked up): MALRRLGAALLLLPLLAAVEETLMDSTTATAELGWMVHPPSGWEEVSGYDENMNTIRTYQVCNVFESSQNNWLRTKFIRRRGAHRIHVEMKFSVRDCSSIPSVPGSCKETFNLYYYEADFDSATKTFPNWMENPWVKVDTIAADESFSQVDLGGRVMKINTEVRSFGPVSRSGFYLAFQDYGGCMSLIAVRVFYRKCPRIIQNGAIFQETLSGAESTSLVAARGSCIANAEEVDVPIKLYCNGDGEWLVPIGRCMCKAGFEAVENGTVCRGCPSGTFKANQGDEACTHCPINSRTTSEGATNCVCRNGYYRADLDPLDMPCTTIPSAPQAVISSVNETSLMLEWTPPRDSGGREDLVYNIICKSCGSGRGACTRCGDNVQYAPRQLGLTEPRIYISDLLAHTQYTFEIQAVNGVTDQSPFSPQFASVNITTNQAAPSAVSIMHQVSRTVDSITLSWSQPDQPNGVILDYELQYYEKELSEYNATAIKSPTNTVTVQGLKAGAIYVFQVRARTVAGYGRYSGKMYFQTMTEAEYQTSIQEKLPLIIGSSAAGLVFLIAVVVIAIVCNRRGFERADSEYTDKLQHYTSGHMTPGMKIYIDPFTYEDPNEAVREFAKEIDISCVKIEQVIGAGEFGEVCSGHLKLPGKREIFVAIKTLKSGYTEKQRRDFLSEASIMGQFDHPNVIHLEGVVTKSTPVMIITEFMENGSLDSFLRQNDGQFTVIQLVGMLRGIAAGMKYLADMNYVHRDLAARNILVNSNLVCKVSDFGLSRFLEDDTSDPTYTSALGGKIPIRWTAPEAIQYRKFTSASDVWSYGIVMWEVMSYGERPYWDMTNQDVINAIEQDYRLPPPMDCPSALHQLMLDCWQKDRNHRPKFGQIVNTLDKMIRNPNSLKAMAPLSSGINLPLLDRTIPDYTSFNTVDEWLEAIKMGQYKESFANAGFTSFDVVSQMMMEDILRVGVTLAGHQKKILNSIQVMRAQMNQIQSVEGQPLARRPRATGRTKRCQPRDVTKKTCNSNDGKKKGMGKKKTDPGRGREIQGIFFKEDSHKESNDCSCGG
EPHB1, sequence (P54762 whole entry, looked up): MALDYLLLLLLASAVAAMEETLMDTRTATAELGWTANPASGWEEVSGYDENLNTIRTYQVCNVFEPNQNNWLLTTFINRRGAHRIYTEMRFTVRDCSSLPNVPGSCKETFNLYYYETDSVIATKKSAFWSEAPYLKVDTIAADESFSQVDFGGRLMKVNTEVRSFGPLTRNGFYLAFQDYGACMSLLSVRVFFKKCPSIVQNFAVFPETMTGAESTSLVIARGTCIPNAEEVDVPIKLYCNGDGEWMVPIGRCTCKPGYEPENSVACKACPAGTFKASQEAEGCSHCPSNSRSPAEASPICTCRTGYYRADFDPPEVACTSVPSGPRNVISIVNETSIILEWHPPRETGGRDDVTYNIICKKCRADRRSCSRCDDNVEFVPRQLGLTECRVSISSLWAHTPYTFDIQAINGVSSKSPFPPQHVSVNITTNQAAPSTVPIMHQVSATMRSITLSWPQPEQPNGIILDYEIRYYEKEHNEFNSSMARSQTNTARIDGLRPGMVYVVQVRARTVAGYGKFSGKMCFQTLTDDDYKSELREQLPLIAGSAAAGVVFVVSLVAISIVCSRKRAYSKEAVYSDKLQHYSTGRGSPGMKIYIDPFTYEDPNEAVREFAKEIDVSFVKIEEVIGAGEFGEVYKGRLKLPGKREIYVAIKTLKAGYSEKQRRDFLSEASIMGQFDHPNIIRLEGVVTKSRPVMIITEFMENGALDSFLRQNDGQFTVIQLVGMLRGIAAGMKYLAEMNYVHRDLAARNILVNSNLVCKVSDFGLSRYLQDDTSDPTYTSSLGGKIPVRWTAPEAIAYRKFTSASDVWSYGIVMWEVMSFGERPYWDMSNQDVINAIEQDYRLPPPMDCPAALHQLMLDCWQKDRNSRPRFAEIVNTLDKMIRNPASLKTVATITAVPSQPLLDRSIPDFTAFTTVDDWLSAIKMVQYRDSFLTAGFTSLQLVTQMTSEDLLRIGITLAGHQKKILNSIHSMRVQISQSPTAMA
Fes, sequence (P07332 whole entry, looked up): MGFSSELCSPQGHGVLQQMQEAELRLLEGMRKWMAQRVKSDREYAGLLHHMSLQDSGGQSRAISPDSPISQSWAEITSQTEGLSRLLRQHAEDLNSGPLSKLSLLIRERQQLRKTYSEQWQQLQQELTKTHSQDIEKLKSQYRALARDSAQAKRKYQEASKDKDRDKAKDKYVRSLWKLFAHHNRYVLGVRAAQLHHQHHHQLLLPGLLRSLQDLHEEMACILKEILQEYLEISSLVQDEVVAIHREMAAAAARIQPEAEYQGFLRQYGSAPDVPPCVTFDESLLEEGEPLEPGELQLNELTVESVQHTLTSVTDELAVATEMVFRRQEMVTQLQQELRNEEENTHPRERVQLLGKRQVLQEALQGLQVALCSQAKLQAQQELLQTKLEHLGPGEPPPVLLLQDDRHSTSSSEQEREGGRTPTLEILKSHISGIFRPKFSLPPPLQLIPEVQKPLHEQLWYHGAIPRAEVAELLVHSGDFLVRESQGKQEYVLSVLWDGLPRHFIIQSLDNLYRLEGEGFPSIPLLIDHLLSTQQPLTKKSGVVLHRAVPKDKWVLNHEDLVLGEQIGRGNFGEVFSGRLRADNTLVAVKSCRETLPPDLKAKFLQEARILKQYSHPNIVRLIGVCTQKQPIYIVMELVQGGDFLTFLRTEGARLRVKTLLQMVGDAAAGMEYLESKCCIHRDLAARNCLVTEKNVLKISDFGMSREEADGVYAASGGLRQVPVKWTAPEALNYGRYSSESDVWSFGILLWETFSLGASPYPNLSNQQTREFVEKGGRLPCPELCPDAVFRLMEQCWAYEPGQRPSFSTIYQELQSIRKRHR
Grb2 SH2, sequence (P62993 whole entry, looked up): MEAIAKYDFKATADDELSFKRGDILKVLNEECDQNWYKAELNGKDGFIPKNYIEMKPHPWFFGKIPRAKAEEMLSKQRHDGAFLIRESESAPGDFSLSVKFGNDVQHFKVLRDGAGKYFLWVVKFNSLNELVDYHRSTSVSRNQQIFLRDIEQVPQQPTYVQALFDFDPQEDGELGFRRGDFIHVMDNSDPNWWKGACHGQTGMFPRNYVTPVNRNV

Sequence | SH2 binding enrichment (c-Src SH2) | SH2 binding enrichment (Grb2 SH2) | SH2 binding enrichment (SHP2-C SH2) | phosphorylation enrichment (Fer (mouse)) | phosphorylation enrichment (FGFR1) | phosphorylation enrichment (EPHB1) | phosphorylation enrichment (Fes) | phosphorylation enrichment (EPHB2) | phosphorylation enrichment (Jak2) | phosphorylation enrichment (FGFR3) | phosphorylation enrichment (c-Abl (mouse)) | phosphorylation enrichment (AncSZ) | phosphorylation enrichment (c-Src) | phosphorylation enrichment (Hck) | phosphorylation enrichment (MERTK) | phosphorylation enrichment (Fyn)
ITQRAYRRHLL [SCN1A_Y1926_I1922T] | 0.404 | 0.69 | 0.585 | 0.403 | 0.442 | 0.427 | 0.557 | 0.417 | 0.573 | 0.48 | 0.547 | 0.63 | 0.622 | 0.457 | 0.585 | 0.444
HLQQSYLPRGT [TEX45_Y396] | 0.3 | 0.442 | 0.458 | 0.697 | 0.97 | 0.622 | 1.26 | 0.773 | 1.38 | 0.927 | 1.59 | 1.04 | 1.32 | 0.661 | 0.66 | 0.939
EDGCIYPATIA [SMN1_Y109] | 0.589 | 0.927 | 0.671 | 0.513 | 0.546 | 0.744 | 1.37 | 0.562 | 1.1 | 0.727 | 0.87 | 1.07 | 0.539 | 0.577 | 0.545 | 0.587
GVIKEYQIRQV [USH2A_Y3623] | 0.501 | 0.902 | 0.689 | 0.353 | 0.454 | 0.376 | 0.575 | 0.349 | 0.606 | 0.476 | 0.422 | 0.627 | 0.372 | 0.363 | 0.359 | 0.356
HHTNEYEYDEL [TGM1_Y134_D132N] | 1 | 0.902 | 0.676 | 0.736 | 0.69 | 0.497 | 1.17 | 0.585 | 1.18 | 0.813 | 1.58 | 1.32 | 0.901 | 0.489 | 0.594 | 0.952
DSFWSYCNAVA [SLC20A2_Y436_S434W_YF] | 0.583 | 1.05 | 0.637 | 0.57 | 0.65 | 0.76 | 1.31 | 0.67 | 1.19 | 0.805 | 0.745 | 1.45 | 0.443 | 0.569 | 0.421 | 0.527
DCAAIYGNEPE [AKR1A1_Y50] | 0.72 | 0.966 | 0.689 | 0.672 | 0.588 | 0.612 | 1.22 | 0.694 | 1.42 | 0.734 | 0.799 | 1.27 | 1.42 | 0.897 | 0.806 | 1.02
WAAQRYGRELR [BAD_Y110] | 0.508 | 0.758 | 0.583 | 0.398 | 0.464 | 0.406 | 0.742 | 0.433 | 0.782 | 0.396 | 0.599 | 0.887 | 0.487 | 0.476 | 0.514 | 0.445
HLMLQYDAVVN [SLC25A32_Y152_R147H] | 2.42 | 1.01 | 0.725 | 1.81 | 1.19 | 0.93 | 2.01 | 1.51 | 1.51 | 1.35 | 1.08 | 1.75 | 0.885 | 1.39 | 1.27 | 1.15
PYADPYYDYEI [ZC3H18_Y371] | 1.94 | 0.795 | 1.03 | 6.03 | 20.2 | 5.6 | 2.33 | 4.58 | 2.75 | 19.8 | 1.16 | 4.79 | 8.11 | 3.13 | 4.93 | 6.02
SFPSTYRFERG [INPPL1_Y661_P659S_YF] | 0.466 | 0.828 | 0.655 | 0.427 | 0.411 | 0.345 | 0.652 | 0.394 | 0.724 | 0.538 | 0.644 | 0.538 | 0.569 | 0.479 | 0.392 | 0.39
RQQEDYLLYKQ [RARRES1_Y159] | 0.561 | 0.821 | 0.842 | 1.1 | 0.743 | 0.793 | 1.65 | 0.823 | 2.46 | 0.86 | 1.39 | 1.32 | 0.941 | 0.969 | 0.631 | 0.547
YDCKWYIPLTD [BCR_Y756] | 0.597 | 0.863 | 0.707 | 0.502 | 0.839 | 0.689 | 1.41 | 0.711 | 1.68 | 0.805 | 0.914 | 1.47 | 0.69 | 0.571 | 1.51 | 0.483
SYSGEYGSGGG [ZG16_Y30_G32S] | 0.495 | 0.782 | 0.794 | 0.462 | 0.419 | 0.454 | 0.696 | 0.429 | 0.727 | 0.512 | 0.596 | 0.763 | 0.545 | 0.534 | 0.53 | 0.417
APVEDYGGGGG [B4GALT6_Y382_I379V] | 0.425 | 0.764 | 0.768 | 0.409 | 0.473 | 0.503 | 0.882 | 0.552 | 0.62 | 0.641 | 0.481 | 0.822 | 0.392 | 0.452 | 0.418 | 0.496
